Patent publication US20220267421A1 (INVOX PHARMA, published 2022)
Substitutions are numbered along the chain they refer to.

T1: cynomolgus MSLN-His-Avi (cynomolgus, single biotin (BirA) in the biotinylated form)
T1 construct: Monomeric, made in HEK293-6E; also called cMSLN-His-Avi; cyno MSLN-His-Avi
T1 chain: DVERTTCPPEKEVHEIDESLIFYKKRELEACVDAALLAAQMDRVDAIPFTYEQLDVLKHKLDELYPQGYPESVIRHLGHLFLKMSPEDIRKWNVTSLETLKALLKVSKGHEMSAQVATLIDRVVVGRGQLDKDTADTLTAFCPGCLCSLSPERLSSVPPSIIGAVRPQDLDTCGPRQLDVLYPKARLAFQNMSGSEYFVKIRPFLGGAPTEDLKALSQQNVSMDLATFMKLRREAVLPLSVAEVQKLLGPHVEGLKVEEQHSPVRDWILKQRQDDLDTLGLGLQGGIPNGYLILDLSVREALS

B1: FS22-053-008-AA/FS28-256-012 mAb^2 (bispecific antibody, human IgG1, kappa, L234A L235A, V domains shown)
VH: EVQLLESGGGLVQPGGSLRLSCAASGFTFTHTYMSWVRQAPGKGLEWVSNISPTYSTTNYADSVKGRFTISRDNNKNTLYLQMNSLRAEDTAVYYCARYNAYHAALDYWGQGTLVTVSS
VL: EIVLTQSPGTLSLSPGERATLSCRASQSVSSSYLAWYQQKPGQAPRLLIYGASSRATGIPDRFSGSGSGTDFTLTISRLEPEDFAVYYCQQSYYYPITFGQGTKVEIKR
B2: FS22-053-008-AA/FS28-256-021 mAb^2 (bispecific antibody, human IgG1, kappa, L234A L235A, V domains shown)
VH: B1 VH
VL: B1 VL with S92H, Y93N, Y94Q, I97N
B3: FS22-053-008-AA/FS28-256-023 mAb^2 (bispecific antibody, human IgG1, kappa, L234A L235A, V domains shown)
VH: B1 VH with H31Q, N75S, H103Q, A104I, A105G
VL: B1 VL with S92H, Y93N, Y94Q, I97N
B4: FS22-053-008-AA/FS28-256-024 mAb^2 (bispecific antibody, human IgG1, kappa, L234A L235A, V domains shown)
VH: B1 VH
VL: B1 VL with S92A, Y93L, Y94G, I97H
B5: FS22-053-008-AA/FS28-256-026 mAb^2 (bispecific antibody, human IgG1, kappa, L234A L235A, V domains shown)
VH: B1 VH with H31Q, N75S, H103Q, A104I, A105G
VL: B1 VL with S92A, Y93L, Y94G, I97H
B6: FS22-053-008-AA/FS28-256-027 mAb^2 (bispecific antibody, human IgG1, kappa, L234A L235A, V domains shown)
VH: B1 VH
VL: B1 VL with S92T, Y93V, Y94P, I97Y
B7: G1-AA/FS28-256 (antibody, human IgG1, kappa, L234A L235A, V domains shown)
VH: B1 VH with H31N, N75S, A101S, H103Q, A104G, A105G
VL: B1 VL
notes: IgG1 LALA

Columns and labels:
human MSLN-His-Avi [1] = target: T2, human MSLN-His-Avi (human, UniProt Q13421 296-598, single biotin (BirA) in the biotinylated form); assay: ratio of the two SPR KD
T2 construct: Monomeric, made in HEK293-6E; Used both immobilised and in solution; also called hMSLN-His-Avi; biotinylated hMSLN-His-Avi
Experimental: (§1) Human MSLN-His-Avi was immobilised on flow cell 2 on a CM5 Series S BIAcore sensor chip (GE Healthcare, BR100530) using an amine coupling kit (GE Healthcare, BR10050) to approximately 200 response units (RU). Flow cell 1 was left blank for subtraction. HEK293-6E supernatants or purified proteins were adjusted with HBS-EP+(GE Healthcare) to approximately 50 nM anti-MSLN mAb per sample. Samples were injected over flow cell 1 and 2 for 2.5 min at 30 μl/min and then allowed to dissociate in HBS-EP buffer for 2.5 min. Regeneration was achieved by injecting 10 mM glycine pH 1.5 (GE Healthcare, BR100354) for 30 seconds at a rate of 30 μl/min. Subtracted data (flow cell 2−flow cell 1) were analysed using BIAevaluation 3.2 Software (GE Healthcare).
(§2) Binding of the selected anti-MSLN clones in mAb² format, to recombinant human and cyno MSLN-His-Avi antigen was measured by SPR using a Biacore T200 processing unit (GE Healthcare). As previously described, it was desirable to bind more strongly to immobilised antigen than to soluble antigen. To assess the binding properties of the clones, binding kinetics to immobilised MSLN antigen were determined as described in section 2.1.2 and compared to the kinetics obtained when MSLN antigens in solution bound to captured clones.
(§3) For the capture experiments, clones in mAb² format were captured using a BIAcore sensor series S chip Protein G (GE Healthcare, 29179315). mAb² diluted in HBS-EP buffer (GE Healthcare, BR100188) containing 900 mM […] at 1 μg/ml, were injected individually on flow cell 2, 3 and 4 at 30 μl/min to achieve a response of approximately 100 RU. G1-AA/HeID1.3 was captured on flow cell 1. The recombinant human and cyno MSLN-His-Avi (section 1.1), diluted in HBS-EP buffer containing 900 mM […], were injected on flow cell 1, 2, 3 or 4 as appropriate at a concentration range of 1000 nM to 0.051 nM with 3-fold dilutions for 5 minutes at 70 μl/min and then allowed to dissociate in buffer for 5 minutes. Regeneration was achieved by injecting 10 mM glycine pH1.5 (GE Healthcare, BR100354) and surfactant P20 (GE Healthcare, BR-1000-54) for 20 seconds at a rate of 30 μl/min.

[2] = target: T3, cell surface human mesothelin (MSLN) (human, UniProt Q13421 296-598); assay: flow cytometry, NCI-H226 cells
T3 construct: whole, on cells; also called cell surface MSLN
Experimental: (§4) Cells were centrifuged at 1200 rpm for 3 min and resuspended in ice cold FACS buffer made up of DPBS (Life Technologies, 14190169) and 1% BSA (Sigma-Aldrich, A7906) at 2×10⁶ cells/ml and 50 μl per well was seeded in a 96-well V-bottom plate (Costar, 3894). All mAbs tested were diluted in FACS buffer in 120 μl at a concentration range of 0.01-200 nM (4-fold dilutions). The NCI-H226 cells were then centrifuged, supernatant removed and cells resuspended in 100 μl of each mAb dilution and incubated at 4° C. for 45 min. Cells were washed twice by centrifugation with 150 μl FACS buffer, resuspended in 100 μl containing goat anti-human IgG (γ-chain specific) F(ab′)2 fragment-R-Phycoerythrin antibody (Sigma, P8047) diluted 1:1000 in FACS buffer and incubated at 4° C. for 45 min. The cells were washed once with 150 μl FACS buffer and then with 150 μl DPBS, resuspended in 150 μl DPBS containing DAPI (Biotium, 40043) at 1:10.000 and read on the BDCantoll or iQue (Intellicyt). Data was analysed using FlowJo v10 to determine the signal geometric mean for PE for live cells in each well.
(§5) Cell binding assays using OVCAR-3 cells were performed similarly to the assays described in section 2.4. The effect of the presence of soluble MSLN was tested by pre-incubating the antibodies in the presence or absence of soluble MSLN before mixing with cells and determining if the pre-incubation affected binding to MSLN on the cell surface. […] 60 μl from each well was then added to either FACS buffer alone or to FACS buffer containing 60 μl of 40 nM recombinant hMSLN (R&D systems, 3265-MS-050) (to give a final concentration of 20 nM hMSLN) and pre-incubated at room temperature for 1 hour before 100 μl was added to the cells. Bound antibody was detected using goat anti-human anti-Fcγ Alexa-Fluor 488 (Jackson Immunoresearch, 109-546-098).
(§6) The method used was exactly as described in section 3.1.4.

human MSLN-His-Avi [3] = target: T2, human MSLN-His-Avi; assay: SPR (Biacore), MSLN immobilised, mAb^2 injected
Experimental: as §1, §2

[4] = target: T3, cell surface human mesothelin (MSLN); assay: flow cytometry, NCI-H226 cells + 20 nM soluble MSLN
Experimental: as §4, §5, §6

human MSLN-His-Avi [5] = target: T2, human MSLN-His-Avi; assay: SPR (Biacore), mAb^2 captured on Protein G, MSLN in solution injected
Experimental: as §2
as §3, with “μl/min. Subtracted data (flow cell 2−flow cell 1, flow cell 3−flow cell 1, or flow cell 4−flow cell 1) were analysed using BIAevaluation 3.2 Software (GE Healthcare) to identify binding using the model 1:1 binding, local Rmax and with refractive index (RI) constant 0.” for “μl/min.”

cynomolgus MSLN-His-Avi = target: T1, cynomolgus MSLN-His-Avi; assay: as above
Experimental: as §2
as §3, with “μl/min. Subtracted data (flow cell 2−flow cell 1, flow cell 3−flow cell 1, or flow cell 4−flow cell 1) were analysed using BIAevaluation 3.2 Software (GE Healthcare) to identify binding using the model 1:1 binding, local Rmax and with refractive index (RI) constant 0.” for “μl/min.”

[6] = target: T3, cell surface human mesothelin (MSLN); assay: flow cytometry, NCI-H226 cells (n = 3)
Experimental: Briefly, NCI-H226 cells (ATCC CRL-5826) were harvested from T175 cell culture flasks using StemPro Accutase (Gibco, A11105-01). Cells were centrifuged at 1200 rpm for 3 min and resuspended in ice cold FACS buffer made up of DPBS (Life Technologies, 14190169) and 1% BSA (Sigma-Aldrich, A7906) at 2×10⁶ cells/ml and 50 μl per well was seeded in a 96-well V-bottom plate (Costar, 3894). All mAbs tested were diluted in FACS buffer in 120 μl at a concentration range of 0.01-200 nM (4-fold dilutions). The NCI-H226 cells were then centrifuged, supernatant removed and cells resuspended in 100 μl of each mAb dilution and incubated at 4° C. for 45 min. Cells were washed twice by centrifugation with 150 μl FACS buffer, resuspended in 100 μl containing goat anti-human IgG (γ-chain specific) F(ab′)2 fragment-R-Phycoerythrin antibody (Sigma, P8047) diluted 1:1000 in FACS buffer and incubated at 4° C. for 45 min. The cells were washed once with 150 μl FACS buffer and then with 150 μl DPBS, resuspended in 150 μl DPBS containing DAPI (Biotium, 40043) at 1:10.000 and read on the BDCantoll or iQue (Intellicyt). Data was analysed using FlowJo v10 to determine the signal geometric mean for PE for live cells in each well.

human MSLN-His-Avi [7] = target: T2, human MSLN-His-Avi; assay: SPR (Biacore), hMSLN-His-Avi immobilised at 50 RU, mAb injected
Experimental: as §1
(§7) For each bin described in 2.1.3, the binding kinetics were determined using the same method as described in section 2.1.2, except that human or cyno MSLN-His-Avi was immobilised at 50 or 100 RU. Clones were tested at a concentration range of 81 nM to 0.33 nM in 3-fold dilutions.

human MSLN-His-Avi [8] = target: T2, human MSLN-His-Avi; assay: SPR (Biacore), hMSLN-His-Avi immobilised at 100 RU, mAb injected
Experimental: as §1, §7

T2 sequence (Q13421 other isoform, or with tags, fused parts or gaps): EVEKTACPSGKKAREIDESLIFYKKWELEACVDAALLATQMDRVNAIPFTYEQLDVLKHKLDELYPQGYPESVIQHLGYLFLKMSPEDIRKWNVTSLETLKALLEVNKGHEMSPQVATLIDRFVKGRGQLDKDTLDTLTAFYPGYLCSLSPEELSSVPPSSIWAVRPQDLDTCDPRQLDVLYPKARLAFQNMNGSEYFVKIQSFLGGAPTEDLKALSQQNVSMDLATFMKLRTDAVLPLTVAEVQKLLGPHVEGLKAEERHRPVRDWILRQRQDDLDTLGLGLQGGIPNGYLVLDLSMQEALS
T3 sequence (Q13421 other isoform, or with tags, fused parts or gaps limits assumed): as the sequence (Q13421 other isoform, or with tags, fused parts or gaps) above

Binder | Ratio of KD in solution/immobilised for human MSLN-His-Avi (human MSLN-His-Avi [1]) | EC50 [2] [nM] | Emax (MFI) [2] [MFI] | Kd (human MSLN-His-Avi [3]) [nM] | EC50 [4] [nM] | Emax (MFI) [4] [MFI] | Kd (human MSLN-His-Avi [5]) [nM] | Kd (cynomolgus MSLN-His-Avi) [nM] | EC50 [6] [nM] | Emax (MFI signal) [6] [MFI] | Kd (human MSLN-His-Avi [7]) [nM] | Kd (human MSLN-His-Avi [8]) [nM]
B1 | 209 | 8.48 | 969000 | 4.1 | 4.83 | 790000 | 861 | 717 | – | – | – | –
B2 | 7 | 3.29 | 919000 | 3.3 | 7.65 | 839000 | 23.2 | 16.2 | – | – | – | –
B3 | 20.8 | 3.29 | 856000 | 3.3 | 3.9 | 716000 | 68.6 | 32.6 | – | – | – | –
B4 | 14.3 | 3.88 | 813000 | 6.7 | 3.91 | 669000 | 95.4 | 56.7 | – | – | – | –
B5 | 19.5 | 2.43 | 741000 | 3.2 | 4.59 | 715000 | 62.3 | 33.2 | – | – | – | –
B6 | 5.3 | 3.93 | 987000 | 1.1 | 21.8 | 964000 | 6 | 0.7 | – | – | – | –
B7 | – | – | – | – | – | – | – | – | 33.1 | 4250 | 26.2 | 23.2
